B1: USP5 (protein)
chain: MAELSEEALLSVLPTIRVPKAGDRVHKDECAFSFDTPESEGGLYICMNTFLGFGKQYVERHFNKTGQRVYLHLRRTRRPKEEDPATGTGDPPRKKPTRLAIGVEGGFDLSEEKFELDEDVKIVILPDYLEIARDGLGGLPDIVRDRVTSAVEALLSADSASRKQEVQAWDGEVRQVSKHAFSLKQLDNPARIPPCGWKCSKCDMRENLWLNLTDGSILCGRRYFDGSGGNNHAVEHYRETGYPLAVKLGTITPDGADVYSYDEDDMVLDPSLAEHLSHFGIDMLKMQKTDKTMTELEIDMNQRIGEWELIQESGVPLKPLFGPGYTGIRNLGNSCYLNSVVQVLFSIPDFQRKYVDKLEKIFQNAPTDPTQDFSTQVAKLGHGLLSGEYSKPVPESGDGERVPEQKEVQDGIAPRMFKALIGKGHPEFSTNRQQDAQEFFLHLINMVERNCRSSENPNEVFRFLVEEKIKCLATEKVKYTQRVDYIMQLPVPMDAALNKEELLEYEEKKRQAEEEKMALPELVRAQVPFSSCLEAYGAPEQVDDFWSTALQAKSVAVKTTRFASFPDYLVIQIKKFTFGLDWVPKKLDVSIEMPEELDISQLRGTGLQPGEEELPDIAPPLVTPDEPKGSLGFYGNEDEDSFCSPHFSSPTSPMLDESVIIQLVEMGFPMDACRKAVYYTGNSGAEAAMNWVMSHMDDPDFANPLILPGSSGPGSTSAAADPPPEDCVTTIVSMGFSRDQALKALRATNNSLERAVDWIFSHIDDLDAEAAMDISEGRSAADSISESVPVGPKVRDGPGKYQLFAFISHMGTSTMCGHYVCHIKKEGRWVIYNDQKVCASEKPPKDLGYIYFYQRVAS
B2: USP21 (protein)
chain: SDDKMAHHTLLLGSGHVGLRNLGNTCFLNAVLQCLSSTRPLRDFCLRRDFRQEVPGGGRAQELTEAFADVIGALWHPDSCEAVNPTRFRAVFQKYVPSFSGYSQQDAQEFLKLLMERLHLEINRRGRRAPPILANGPVPSPPRRGGALLEEPELSDDDRANLMWKRYLEREDSKIVDLFVGQLKSCLKCQACGYRSTTFEVFCDLSLPIPKKGFAGGKVSLRDCFNLFTKEEELESENAPVCDRCRQKTRSTKKLTVQRFPRILVLHLNRFSASRGSIKKSSVGVDFPLQRLSLGDFASDKAGSPVYQLYALCNHSGSVHYGHYTALCRCQTGWHVYNDSRVSPVSENQVASSEGYVLFYQLMQEPPRCL
B3: CYLD (protein)
chain: GLEIMIGKKKGIQGHYNSCYLDSTLFCLFAFSSVLDTVLLRPKEKNDVEYYSETQELLRTEIVNPLRIYGYVCATKIMKLRKILEKVEAASGFTSEEKDPEEFLNILFHHILRVEPLLKIRSAGQKVQDCYFYQIFMEKNEKVGVPTIQQLLEWSFINSNLKFAEAPSCLIIQMPRFGKDFKLFKKIFPSLELNITDLLEDTPRQCRICGGLAMYECRECYDDPDISAGKIKQFCKTCNTQVHLHPKRLNHKYNPVSLPKDLPDWDWRHGCIPCQNMELFAVLCIETSHYVAFVKYGKDDSAWLFFDSMADRDGGQNGFNIPQVTPCPEVGEYLKMSLEDLHSLDSRRIQGCARRLLCDAYMCMYQSPTMSLYK
B4: AMSH (protein)
chain: MSDHGDVSLPPEDRVRALSQLGSAVEVNEDIPPRRYFRSGVEIIRMASIYSEEGNIEHAFILYNKYITLFIEKLPKHRDYKSAVIPEKKDTVKKLKEIAFPKAEELKAELLKRYTKEYTEYNEEKKKEAEELARNMAIQQELEKEKQRVAQQKQQQLEQEQFHAFEEMIRNQELEKERLKIVQEFGKVDPGLGGPLVPDLEKPSLDVFPTLTVSSIQPSDCHTTVRPAKPPVVDRSLKPGALSNSESIPTIDGLRHVVVPGRLCPQFLQLASANTARGVETCGILCGKLMRNEFTITHVLIPKQSAGSDYCNTENEEELFLIQDQQGLITLGWIHTHPTQTAFLSSVDLHTHCSYQMMLPESVAIVCSPKFQETGFFKLTDHGLEEISSCRQKGFHPHSKDPPLFCSCSHVTVVDRAVTITDLR
B5: ubiquitin C-terminal hydrolase-L3 (UCH-L3) (protein)
chain: MEGQRWLPLEANPEVTNQFLKQLGLHPNWQFVDVYGMDPELLSMVPRPVCAVLLLFPITEKYEVFRTEEEEKIKSQGQDVTSSVYFMKQTISNACGTIGLIHAIANNKDKMHFESGSTLKKFLEESVSMSPEERARYLENYDAIRVTHETSAHEGQTEAPSIDEKVDLHFIALVHVDGHLYELDGRKPFPINHGETSDETLLEDAIEVCKKFMERDPDELRFNAIALSAA
B6: A20 (protein)
chain: MAEQVLPQALYLSNMRKAVKIRERTPEDIFKPTNGIIHHFKTMHRYTLEMFRTCQFCPQFREIIHKALIDRNIQATLESQKKLNWCREVRKLVALKTNGDGNCLMHATSQYMWGVQDTDLVLRKALFSTLKETDTRNFKFRWQLESLKSQEFVETGLCYDTRNWNDEWDNLIKMASTDTPMARSGLQYNSLEEIHIFVLCNILRRPIIVISDKMLRSLESGSNFAPLKVGGIYLPLHWPAQECYRYPIVLGYDSHHFVPLVTLKDSGPEIRAVPLVNRDRGRFEDLKVHFLTDPENEMKEKLLKEYLMVIEIPVQGWDHGTTHLINAAKLDEANLPKEINLVDDYFELVQHEYKKWQENSEQGRRE
B7: TRABID (protein)
chain: LEVDFKKLKQIKNRMKKTDWLFLNACVGVVEGDLAAIEAYKSSGGDIARQLTADEVRLLNRPSAFDVGYTLVHLAIRFQRQDMLAILLTEVSQQAAKCIPAMVCPELTEQIRREIAASLHQRKGDFACYFLTDLVTFTLPADIEDLPPTVQEKLFDEVLDRDVQKELEEESPIINWSLELATRLDSRLYALWNRTAGDCLLDSVLQATWGIYDKDSVLRKALHDSLHDCSHWFYTRWKDWESWYSQSFGLHFSLREEQWQEDWAFILSLASQPGASLEQTHIFVLAHILRRPIIVYGVKYYKSFRGETLGYTRFQGVYLPLLWEQSFCWKSPIALGYTRGHFSALVAMENDGYGNRGAGANLNTDDDVTITFLPLVDSERKLLHVHFLSAQELGNEEQQEKLLREWLDCCVTEGGVLVAMQKSSRRRNHPLVTQMVEKWLDRYRQIRPCTSLS
B8: Cezanne (protein)
chain: PPSFSEGSGGSRTPEKGFSDREPTRPPRPILQRQDDIVQEKRLSRGISHASSSIVSLARSHVSSNGGGGGSNEHPLEMPICAFQLPDLTVYNEDFRSFIERDLIEQSMLVALEQAGRLNWWVSVDPTSQRLLPLATTGDGNCLLHAASLGMWGFHDRDLMLRKALYALMEKGVEKEALKRRWRWQQTQQNKESGLVYTEDEWQKEWNELIKLASSEPRMHLGTNGANCGGVESSEEPVYESLEEFHVFVLAHVLRRPIVVVADTMLRDSGGEAFAPIPFGGIYLPLEVPASQCHRSPLVLAYDQAHFSALVSMEQKENTKEQAVIPLTDSEYKLLPLHFAVDPGKGWEWGKDDSDNVRLASVILSLEVKLHLLHSYMNVKWIPLSSDAQAPLAQ
B9: BAP1 (protein)
chain: MNKGWLELESDPGLFTLLVEDFGVKGVQVEEIYDLQSKCQGPVYGFIFLFKWIEERRSRRKVSTLVDDTSVIDDDIVNNMFFAHQLIPNSCATHALLSVLLNCSSVDLGPTLSRMKDFTKGFSPESKGYAIGNAPELAKAHNSHARPEPRHLPEKQNGLSAVRTMEAFHFVSYVPITGRLFELDGLKVYPIDHGPWGEDEEWTDKARRVIMERIGLATAGEPYHDIRFNLMAVVPDRRIKYEARLHVLKVNRQTVLEALQQLIRVTQPELIQTHKSQESQLPEESKSASNKSPLVLEANRAPAASEGNHTDGAEEAAGSCAQAPSHSPPNKPKLVVKPPGSSLNGVHPNPTPIVQRLPAFLDNHNYAKSPMQEEEDLAAGVGRSRVPVRPPQQYSDDEDDYEDDEEDDVQNTNSALRYKGKGTGKPGALSGSADGQLSVLQPNTINVLAEKLKESQKDLSIPLSIKTSSGAGSPAVAVPTHSQPSPTPSNESTDTASEIGSAFNSPLRSPIRSANPTRPSSPVTSHISKVLFGEDDSLLRVDCIRYNRAVRDLGPVISTGLLHLAEDGVLSPLALTEGGKGSSPSIRPIQGSQGSSSPVEKEVVEATDSREKTGMVRPGEPLSGEKYSPKELLALLKCVEAEIANYEACLKEEVEKRKKFKIDDQRRTHNYDEFICTFISMLAQEGMLANLVEQNISVRRRQGVSIGRLHKQRKPDRRKRSRPYKAKRQ

Columns and labels:
[1] = target: Lys29-linked diubiquitin, P0CG48
Sequence of Lys29-linked diubiquitin, P0CG48 (P0CG48 whole entry, looked up): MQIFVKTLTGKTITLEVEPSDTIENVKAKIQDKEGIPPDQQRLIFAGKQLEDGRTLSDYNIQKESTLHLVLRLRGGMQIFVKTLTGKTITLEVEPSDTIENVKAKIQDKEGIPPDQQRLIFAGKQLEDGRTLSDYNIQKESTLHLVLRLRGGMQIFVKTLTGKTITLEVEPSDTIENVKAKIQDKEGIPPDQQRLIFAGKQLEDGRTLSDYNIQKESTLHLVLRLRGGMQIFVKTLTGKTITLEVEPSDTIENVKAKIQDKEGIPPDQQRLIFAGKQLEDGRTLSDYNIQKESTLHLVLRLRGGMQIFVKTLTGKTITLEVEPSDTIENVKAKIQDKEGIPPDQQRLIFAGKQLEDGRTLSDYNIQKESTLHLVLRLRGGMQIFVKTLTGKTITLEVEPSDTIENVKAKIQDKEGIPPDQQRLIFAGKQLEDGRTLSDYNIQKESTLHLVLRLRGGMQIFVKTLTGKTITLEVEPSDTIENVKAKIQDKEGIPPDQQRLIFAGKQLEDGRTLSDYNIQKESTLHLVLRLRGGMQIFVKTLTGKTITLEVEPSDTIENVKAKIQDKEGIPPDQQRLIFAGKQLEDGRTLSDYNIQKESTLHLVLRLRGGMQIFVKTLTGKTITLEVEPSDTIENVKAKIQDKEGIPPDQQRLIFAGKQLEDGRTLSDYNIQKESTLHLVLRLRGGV

[2] = target: Lys6-linked diubiquitin, P0CG48
Sequence of Lys6-linked diubiquitin, P0CG48 (P0CG48 whole entry, looked up): as above

[3] = target: Lys63-linked diubiquitin (enzymatically assembled), P0CG48
Sequence of Lys63-linked diubiquitin (enzymatically assembled), P0CG48 (P0CG48 whole entry, looked up): as above

Protein | cleavage in in vitro deubiquitinase assay (SDS-PAGE, silver stain) [1] | cleavage in in vitro deubiquitinase assay (SDS-PAGE, silver stain) [2] | cleavage in in vitro deubiquitinase assay (SDS-PAGE, silver stain) [3] | fold better substrate than Lys63-linked diubiquitin [1] | specificity constant (kcat/Km), quantitative western blot [1] | specificity constant (kcat/Km), fluorescence anisotropy [3] | specificity constant (kcat/Km), quantitative western blot [3]
B1 | rapidly cleaves all chains types tested | rapidly cleaves all chains types tested | rapidly cleaves all chains types tested | – | – | – | –
B2 | rapidly cleaves all chain types tested | rapidly cleaves all chain types tested | rapidly cleaves all chain types tested | – | – | – | –
B3 | shows little or no activity against the Lys6 and Lys29 linkage | shows little or no activity against the Lys6 and Lys29 linkage | efficiently cleaves its preferred Lys63 linkage | – | – | – | –
B4 | inactive against Lys6- and Lys29-linked diubiquitin | inactive against Lys6- and Lys29-linked diubiquitin | cleaves Lys63-linked diubiquitin under identical reaction conditions with high activity | – | – | – | –
B5 | failed to cleave | failed to cleave | – | – | – | – | –
B6 | also did not cleave Lys29 linkages | did not cleave Lys6-linked diubiquitin | – | – | – | – | –
B7 | cleaves Lys29 linkages more rapidly than Lys63 linkages | did not cleave Lys6-linked diubiquitin | cleaves Lys29 linkages more rapidly than Lys63 linkages | 40-fold better substrate | 1.0 (±0.2)×10^5 M^-1 s^-1 | 1.7 (±2.0)×10^3 M^-1 s^-1 | 2.5 (±0.4)×10^3 M^-1 s^-1
B8 | also did not cleave Lys29 linkages | did not cleave Lys6-linked diubiquitin | – | – | – | – | –
B9 | failed to cleave | failed to cleave | – | – | – | – | –

Reference: patent publication US20160304571
